# According to IntAct's records for PubMed 24612608:
# B1: Beta-secretase 1 (Homo sapiens), P56817 (parent)
# chain: MAQALPWLLLWMGAGVLPAHGTQHGIRLPLRSGLGGAPLGLRLPRETDEEPEEPGRRGSFVEMVDNLRGKSGQGYYVEMTVGSPPQTLNILVDTGSSNFAVGAAPHPFLHRYYQRQLSSTYRDLRKGVYVPYTQGKWEGELGTDLVSIPHGPNVTVRANIAAITESDKFFINGSNWEGILGLAYAEIARPDDSLEPFFDSLVKQTHVPNLFSLQLCGAGFPLNQSEVLASVGGSMIIGGIDHSLYTGSLWYTPIRREWYYEVIIVRVEINGQDLKMDCKEYNYDKSIVDSGTTNLRLPKKVFEAAVKSIKAASSTEKFPDGFWLGEQLVCWQAGTTPWNIFPVISLYLMGEVTNQSFRITILPQQYLRPVEDVATSQDDCYKFAISQSSTGTVMGAVIMEGFYVVFDRARKRIGFAVSACHVHDEFRTAAVEGPFVTLDMEDCGYNIPQTDESTLMTIAYVMAAICALFMLPLCLMVCQWRCLRCLRQQHDDFADDISLLK
# partner: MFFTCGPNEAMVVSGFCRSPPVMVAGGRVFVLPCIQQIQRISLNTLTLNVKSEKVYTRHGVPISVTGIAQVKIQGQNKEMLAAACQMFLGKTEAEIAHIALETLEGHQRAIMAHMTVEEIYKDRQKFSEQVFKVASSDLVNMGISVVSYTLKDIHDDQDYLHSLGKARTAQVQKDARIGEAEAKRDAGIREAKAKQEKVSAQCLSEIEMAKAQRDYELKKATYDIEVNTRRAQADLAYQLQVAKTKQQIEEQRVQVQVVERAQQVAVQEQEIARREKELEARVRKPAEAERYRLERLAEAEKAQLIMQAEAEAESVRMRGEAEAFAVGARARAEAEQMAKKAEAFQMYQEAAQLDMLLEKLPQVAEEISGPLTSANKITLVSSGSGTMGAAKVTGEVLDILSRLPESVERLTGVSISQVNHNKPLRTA
# Variants of: B1
# Settings: with flot1_rat Flot1, Q9Z1E1
row,Variant,effect of a mutation on the interaction
1,L499A;L500A,disrupting interaction
